Measured values taken from article PMC6351565.
Positions count from the first letter of the chain named. Numbers in names are those of the source.

T1: endogenous 14-3-3 (all isoforms included), P27348
T1 chain: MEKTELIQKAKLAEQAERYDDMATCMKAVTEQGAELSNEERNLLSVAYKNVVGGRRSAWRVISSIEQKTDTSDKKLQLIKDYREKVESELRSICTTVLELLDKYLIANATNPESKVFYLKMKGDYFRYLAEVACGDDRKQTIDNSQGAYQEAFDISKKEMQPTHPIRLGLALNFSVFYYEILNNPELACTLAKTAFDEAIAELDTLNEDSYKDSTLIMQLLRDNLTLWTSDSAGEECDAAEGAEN

B1: IRSp53-FLAG (wild type), natively phosphorylated, Q9UQB8-4 T340A; T360A (protein)
chain: MSLSRSEEMHRLTENVYKTIMEQFNPSLRNFIAMGKNYEKALAGVTYAAKGYFDALVKMGELASESQGSKELGDVLFQMAEVHRQIQNQLEEMLKSFHNELLTQLEQKVELDSRYLSAALKKYQTEQRSKGDALDKCQAELKKLRKKSQGSKNPQKYSDKELQYIDAISNKQGELENYVSDGYKTALTEERRRFCFLVEKQCAVAKNSAAYHSKGKELLAQKLPLWQQACADPSKIPERAVQLMQQVASNGATLPSALSASKSNLVISDPIPGAKPLPVPPELAPFVGRMSAQESTPIMNGVTGPDGEDYSPWADRKAAQPKSLSPPQSQSKLSDSYSNALPVRKSVTPKNSYATTENKALPRSSSMAAGLERNGRMRVKAIFSHAAGDNSTLLSFKEGDLITLLVPEARDGWHYGESEKTKMRGWFPFSYTRVLDSDGSDRLHMSLQQGKSSSTGNLLDKDDLAIPPPDYGAASRAFPAQTASGFKQRPYSVAVPAFSQGLDDYGARSMSRNPFAHVQLKPTVTNDRCDLSAQGPEGREHGDGSARTLAGR
B2: IRSp53-FLAG (wild type), natively phosphorylated, Q9UQB8-4 S452A; S453A; S454A; T455A (protein)
chain: MSLSRSEEMHRLTENVYKTIMEQFNPSLRNFIAMGKNYEKALAGVTYAAKGYFDALVKMGELASESQGSKELGDVLFQMAEVHRQIQNQLEEMLKSFHNELLTQLEQKVELDSRYLSAALKKYQTEQRSKGDALDKCQAELKKLRKKSQGSKNPQKYSDKELQYIDAISNKQGELENYVSDGYKTALTEERRRFCFLVEKQCAVAKNSAAYHSKGKELLAQKLPLWQQACADPSKIPERAVQLMQQVASNGATLPSALSASKSNLVISDPIPGAKPLPVPPELAPFVGRMSAQESTPIMNGVTGPDGEDYSPWADRKAAQPKSLSPPQSQSKLSDSYSNTLPVRKSVTPKNSYATTENKTLPRSSSMAAGLERNGRMRVKAIFSHAAGDNSTLLSFKEGDLITLLVPEARDGWHYGESEKTKMRGWFPFSYTRVLDSDGSDRLHMSLQQGKAAAAGNLLDKDDLAIPPPDYGAASRAFPAQTASGFKQRPYSVAVPAFSQGLDDYGARSMSSGSGTLVSTV
B3: IRSp53-FLAG (wild type), natively phosphorylated, Q9UQB8-4 S366A (protein)
chain: B2 chain with S366A, A452S, A453S, A454S, A455T
B4: IRSp53-FLAG (wild type), natively phosphorylated, Q9UQB8-4 T340A (protein)
chain: B2 chain with T340A, A452S, A453S, A454S, A455T
B5: IRSp53-FLAG (wild type), natively phosphorylated, Q9UQB8-4 T360A (protein)
chain: B2 chain with T360A, A452S, A453S, A454S, A455T

Target: T1, endogenous 14-3-3 (all isoforms …)
Test: coimmunoprecipitation (quantified western blot)
Details: chain shown with the change; serum-starved cells; parent: est. 1.0; read off a plot

| ratio to parent | Binder |
| --- | --- |
| 0.05 | B1 |
| 0.98 | B2 |
| 0.62 | B3 |
| 0.1 | B4 |
| 0.12 | B5 |
